Data set [1] concerns the target T1, CRPMTB wildtype (Mycobacterium tuberculosis, UniProt P9WMH3 1-224).
T1 sequence: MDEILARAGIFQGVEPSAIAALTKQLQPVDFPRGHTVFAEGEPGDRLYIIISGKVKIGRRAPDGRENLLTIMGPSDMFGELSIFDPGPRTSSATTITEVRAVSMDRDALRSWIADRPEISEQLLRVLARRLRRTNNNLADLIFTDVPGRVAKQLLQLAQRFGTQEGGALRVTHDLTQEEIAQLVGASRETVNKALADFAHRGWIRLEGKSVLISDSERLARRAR
Briefly: fluorescence anisotropy; 1 mM cAMP; specific 1:1 transition; 75 mM KCl, 50 mM HEPES, 1 mM EDTA, pH 7.6; […]; temperature not stated. Conditions: protein: recombinant; tags: His-tag (pET-3a); chain copies: 2; label: fluorescein; blunt. In general terms: Polarisation of emitted light reports the rotation of a fluorescent probe.

For data set [2], the target named is T1, CRPMTB wildtype. Briefly: fluorescence anisotropy; no cAMP; specific 1:1 transition; 75 mM KCl, 50 mM HEPES, 1 mM EDTA, pH 7.6; […]; temperature not stated. Conditions: protein: recombinant; tags: His-tag (pET-3a); chain copies: 2; label: fluorescein; blunt.

B1: serC32 full-site promoter (dsDNA)
DNA 1: GCGCGTAGTGTGAACAAGCTCACATGCAAGCC
DNA 2: GGCTTGCATGTGAGCTTGTTCACACTACGCGC
Turning to B1, the values for the Ka with CRPMTB wildtype [1] and in the data set with CRPMTB wildtype [2] were 2.81 ± 0.01 10^8 M-1 and 1.87 ± 0.01 10^8 M-1, respectively.
